According to US20210115149A1 (ABVISION, published 2021):

Target: human CD40 protein (human, UniProt P25942 21-193, limits assumed)
Assay: ELISA screening of hybridoma wells against human CD40 protein
Experimental: Antibodies were created by electrofusion of human CD40-immunized mouse splenocytes (Balb/c strain) with SP2/0-A14 cells (ATCC) (Immunization procedure; dose, adjuvants, time course). Fused cells were seeded into 96-well plates and ELISA screening was conducted to identify wells that contain antibodies which interact with the human CD40 protein. Positive wells were further expanded and followed a limited dilution to isolate monoclonal hybridomas. Purified antibodies were used to test their ability to trigger CD40 signaling by an in-house created reporter system. Basically, an engineered 293T cell line was transduced to stably express the human CD40 protein. When testing the agonistic functions of CD40 antibodies, DNA plasmids of an NF-kB-driven luciferase reporter and Fc-gamma receptors were transiently transfected into established CD40-293T cells. Antibodies to be tested were added to the culture and incubated for 24 hours. Treated cells were harvested, lysed and analyzed on a plate reader for the activity of luciferase. Anti-human CD40 mAb clone #1E10-H2 and clone #2G9-B11 were tested binding to and activating human CD40. The sequences of the IgG heavy chain and light chain variable domains of anti-human CD40 agonistic mAb clone #1E10-H2 are shown in FIG. 1.

human CD40 protein, sequence (P25942 21-193 limits assumed): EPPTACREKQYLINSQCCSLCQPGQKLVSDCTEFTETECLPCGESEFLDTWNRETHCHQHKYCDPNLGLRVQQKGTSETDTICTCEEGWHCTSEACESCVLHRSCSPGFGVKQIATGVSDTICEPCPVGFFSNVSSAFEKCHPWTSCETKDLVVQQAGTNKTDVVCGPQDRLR

binding result	Binder
binds	Anti-human CD40 mAb clone #2G9-B11 (antibody, mouse IgG1, V domains shown, Mouse hybridoma monoclonal antibody (Balb/c), purified; also called anti-CD40 2G9-B11) VH: EVQLVESGGGLVKPGGSLKLSCAASGFSFSSYAMSWVRQTPEKRLEWVATISSGGDYTYYPDSVKGRFTISRDNAKNTLYLQMTSLRSEDTAMYYCARRNHFTYWGQGTLVTVSA VL: DIVMTQSHKFMSTSVGDRVSITCKASQDVVTSVAWYQQKPGQSPKLLIYWTSTRHTGVPDRFTGSGSGTDFTLTISNVQSEDLADYFCQQYSSYPLTFGAGTKLELK
binds	Anti-human CD40 mAb clone #1E10-H2 (antibody, V domains shown, Mouse hybridoma monoclonal antibody (Balb/c), purified; also called anti-human CD40 agonistic mAb (clone #1E10-H2)) VH: QVQLQQSGAELMKPGASVKISCKATGYTFSSYWIEWIKQRPGHVLEWIGEILPGSGSANYNERFKGKATFTADTSSNTAYMQLTSLTSEDSAVYYCARLRYYGSSPWFAYWGQGTLVTVSA VL: not shown
